Several values for one entry are separate records, joined by “and”; a condition that tells them apart may be missing. Equal values may be shown once. Each block holds one binder with its values, some of them ahead of it.
How the values were obtained:
[1] = molecular target: recombinant human FAM19A5 protein (His-tagged) (human) (UniProt Q7Z5A7); assay: ELISA on coated FAM19A5, as in Example 6
[2] = molecular target: recombinant human FAM19A5 protein (His-tagged) (human) (UniProt Q7Z5A7); assay: ELISA on N'-Term His FAM19A5, fit of the titration (OD 492 nm); R2 printed 0.8806
[3] = molecular target: recombinant human FAM19A5 protein (His-tagged) (human) (UniProt Q7Z5A7); assay: ELISA, His-FAM19A5 (positive control) coated on the plate, absorbance at 492 nm
[4] = molecular target: recombinant human FAM19A5 protein (His-tagged) (human) (UniProt Q7Z5A7); assay: two-site sandwich ELISA; capture antibody 3-2; biotinylated detection antibody 1-65; antigen in ng/mL
[5] = molecular target: recombinant human FAM19A5 protein (His-tagged) (human) (UniProt Q7Z5A7); assay: two-site sandwich ELISA; capture antibody 13B4; biotinylated detection antibody 1-65; antigen in ng/mL
[6] = molecular target: recombinant human FAM19A5 protein (His-tagged) (human) (UniProt Q7Z5A7); assay: two-site sandwich ELISA; capture antibody 2-13; biotinylated detection antibody 1-65; antigen in ng/mL
[7] = molecular target: recombinant human FAM19A5 protein (His-tagged) (human) (UniProt Q7Z5A7); assay: two-site sandwich ELISA; capture antibody P2-A03; biotinylated detection antibody 1-65; antigen in ng/mL
[8] = molecular target: recombinant human FAM19A5 protein (His-tagged) (human) (UniProt Q7Z5A7); assay: two-site sandwich ELISA; capture antibody P2-F11; biotinylated detection antibody 1-65; antigen in ng/mL
[9] = molecular target: recombinant human FAM19A5 protein (His-tagged) (human) (UniProt Q7Z5A7); assay: two-site sandwich ELISA; capture antibody 3-2; S/N = O.D. at 10 ng/mL antigen / O.D. at 0 ng/mL; O.D. in column 0 printed 0.28
[10] = molecular target: recombinant human FAM19A5 protein (His-tagged) (human) (UniProt Q7Z5A7); assay: two-site sandwich ELISA; capture antibody 13B4; S/N = O.D. at 10 ng/mL antigen / O.D. at 0 ng/mL; O.D. in column 0 printed 0.15
[11] = molecular target: recombinant human FAM19A5 protein (His-tagged) (human) (UniProt Q7Z5A7); assay: two-site sandwich ELISA; capture antibody 2-13; S/N = O.D. at 10 ng/mL antigen / O.D. at 0 ng/mL; O.D. in column 0 printed 0.55
[12] = molecular target: recombinant human FAM19A5 protein (His-tagged) (human) (UniProt Q7Z5A7); assay: two-site sandwich ELISA; capture antibody P2-A03; S/N = O.D. at 10 ng/mL antigen / O.D. at 0 ng/mL; O.D. in column 0 printed 0.1
[13] = molecular target: recombinant human FAM19A5 protein (His-tagged) (human) (UniProt Q7Z5A7); assay: two-site sandwich ELISA; capture antibody P2-F11; S/N = O.D. at 10 ng/mL antigen / O.D. at 0 ng/mL; O.D. in column 0 printed 0.19
[14] = molecular target: recombinant human FAM19A5 protein (His-tagged) (human) (UniProt Q7Z5A7); assay: ELISA on N'-Term His FAM19A5, fit of the titration; R2 printed 0.8823
[15] = molecular target: recombinant human FAM19A5 protein (His-tagged) (human) (UniProt Q7Z5A7); assay: ELISA on N'-Term His FAM19A5, fit of the titration (OD 492 nm); R2 printed 0.8823
[16] = molecular target: recombinant human FAM19A5 protein (His-tagged) (human) (UniProt Q7Z5A7); assay: two-site sandwich ELISA; capture antibody 3-2; biotinylated detection antibody 13B4; antigen in ng/mL
[17] = molecular target: recombinant human FAM19A5 protein (His-tagged) (human) (UniProt Q7Z5A7); assay: two-site sandwich ELISA; capture antibody 1-65; biotinylated detection antibody 13B4; antigen in ng/mL
[18] = molecular target: recombinant human FAM19A5 protein (His-tagged) (human) (UniProt Q7Z5A7); assay: two-site sandwich ELISA; capture antibody 2-13; biotinylated detection antibody 13B4; antigen in ng/mL
[19] = molecular target: recombinant human FAM19A5 protein (His-tagged) (human) (UniProt Q7Z5A7); assay: two-site sandwich ELISA; capture antibody P2-A03; biotinylated detection antibody 13B4; antigen in ng/mL
[20] = molecular target: recombinant human FAM19A5 protein (His-tagged) (human) (UniProt Q7Z5A7); assay: two-site sandwich ELISA; capture antibody P2-F11; biotinylated detection antibody 13B4; antigen in ng/mL
[21] = molecular target: recombinant human FAM19A5 protein (His-tagged) (human) (UniProt Q7Z5A7); assay: two-site sandwich ELISA; capture antibody 3-2; S/N = O.D. at 10 ng/mL antigen / O.D. at 0 ng/mL; O.D. in column 0 printed 0.13
[22] = molecular target: recombinant human FAM19A5 protein (His-tagged) (human) (UniProt Q7Z5A7); assay: two-site sandwich ELISA; capture antibody 1-65; S/N = O.D. at 10 ng/mL antigen / O.D. at 0 ng/mL; O.D. in column 0 printed 0.12
[23] = molecular target: recombinant human FAM19A5 protein (His-tagged) (human) (UniProt Q7Z5A7); assay: two-site sandwich ELISA; capture antibody 2-13; S/N = O.D. at 10 ng/mL antigen / O.D. at 0 ng/mL; O.D. in column 0 printed 0.21
[24] = molecular target: recombinant human FAM19A5 protein (His-tagged) (human) (UniProt Q7Z5A7); assay: two-site sandwich ELISA; capture antibody P2-A03; S/N = O.D. at 10 ng/mL antigen / O.D. at 0 ng/mL; O.D. in column 0 printed 0.14
[25] = molecular target: recombinant human FAM19A5 protein (His-tagged) (human) (UniProt Q7Z5A7); assay: two-site sandwich ELISA; capture antibody P2-F11; S/N = O.D. at 10 ng/mL antigen / O.D. at 0 ng/mL; O.D. in column 0 printed 0.15
[26] = molecular target: recombinant human FAM19A5 protein (His-tagged) (human) (UniProt Q7Z5A7); assay: ELISA on N'-Term His FAM19A5, fit of the titration; R2 printed 0.9329
[27] = molecular target: recombinant human FAM19A5 protein (His-tagged) (human) (UniProt Q7Z5A7); assay: ELISA on N'-Term His FAM19A5, fit of the titration (OD 492 nm); R2 printed 0.9329
[28] = molecular target: T1, FAM19A5 epitope fragment F1 conjugated to BSA (human); assay: ELISA, antigen coated on the plate, antibody in solution, absorbance at 492 nm; conditions: remark: other sources report otherwise
T1 chain: QLAAGTCEIVTLDR

[29] = molecular target: T2, FAM19A5 epitope fragment F3 conjugated to BSA (human); assay: as above; conditions: remark: other sources report otherwise
T2 chain: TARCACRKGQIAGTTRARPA

[30] = molecular target: T3, FAM19A5 epitope fragment F4 conjugated to BSA (human); assay: as above; conditions: remark: other sources report otherwise
T3 chain: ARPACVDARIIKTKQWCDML

[31] = molecular target: T4, FAM19A5 epitope fragment F5 conjugated to BSA (human); assay: as above; conditions: remark: other sources report otherwise
T4 chain: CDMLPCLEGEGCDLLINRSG

[32] = molecular target: T5, FAM19A5 epitope fragment F6 conjugated to BSA (human); assay: as above; conditions: remark: other sources report otherwise
T5 chain: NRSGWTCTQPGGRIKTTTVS

B1: anti-FAM19A5 antibody 1-65 (antibody, V domains shown)
VH: AVTLDESGGGLQTPGGALSLVCKASGFTFSSYQMGWVRQAPGKGLEWVGVINKSGSDTSYGSAVKGRATISRDNGQSTVRLQLNNLRAEDTGTYFCAKGSASYITAATIDAWGHGTEVIVSS
VL: ALTQPSSVSANPGETVKITCSGGGSSGYGYGWYQQKSPSSAPLTVIYWNDKRPSDIPSRFSGSKSGSTHTLTITGVQAEDEAVYFCGNDDYSSDSGYVGVFGAGTTLTVL
Kd [1]: 0.1 nM
Bmax [2]: 3.26
O.D. [3]: 3.95
O.D., antigen 100 [4]: 1.98
O.D., antigen column 10 [4]: 1.83
O.D., antigen 100 [5]: 0.19
O.D., antigen column 10 [5]: 0.15
O.D., antigen 100 [6]: 1.73
O.D., antigen column 10 [6]: 1.81
O.D., antigen 100 [7]: 0.16
O.D., antigen column 10 [7]: 0.11
O.D., antigen 100 [8]: 1.61
O.D., antigen column 10 [8]: 0.33
S/N [9]: 6.5
S/N [10]: 1
S/N [11]: 3.3
S/N [12]: 1.1
S/N [13]: 1.7

B4: anti-FAM19A5 antibody 3-2 (antibody, V domains shown)
VH: not shown
VL: ALTQPSSVSANPGETVKITCSGGGSYAGSYYYGWYQQKAPGSAPVTLIYESNKRPSDIPSRFSGSTSGSTATLTITGVQADDEAIYYCGSWDSSNGGIFGAGTTLTVL
modifications: here or on the partner: conjugated to BSA
O.D. [28]: 0.06 and 0.05
O.D. [29]: 0.06 and 0.05
O.D. [30]: 0.05
O.D. [31]: 0.05
O.D. [32]: 0.05

Now from value to binder:

Kd [14]: 1.06 nM
Bmax [15]: 2.84
O.D., antigen 100 [16]: 1.7
O.D., antigen column 10 [16]: 0.3
O.D., antigen 100 [17]: 0.12
O.D., antigen column 10 [17]: 0.12
O.D., antigen 100 [18]: 1.92
O.D., antigen column 10 [18]: 0.65
O.D., antigen 100 [19]: 0.15
O.D., antigen column 10 [19]: 0.16
O.D., antigen 100 [20]: 0.14
O.D., antigen column 10 [20]: 0.16
S/N [21]: 2.3
S/N [22]: 1
S/N [23]: 3.1
S/N [24]: 1.1
S/N [25]: 1.1
B2: anti-FAM19A5 antibody 13B4 (antibody, V domains shown)
VH: QVQLQESGPGLVKPSGTLSLNCAVSGGSISSSNWWSWVRQPPGKGLEWIGEIYHGGTTNYNPSLKGRVTMSVDKTKNQFSLRLSSVTAVDTAVYYCARWQLVGGLDVWGQGTTVTVSS
VL: SYELTQPLSVSVSPGQTASITCSGDKLGNVYASWYQQKPGQSPTLVIYQDNKRPSGIPERFSGSNSGKTATLTISGTQALDEADYYCQAWDSSTAVFGGGTKLTVLR
modifications: Biotinylated when used as detection antibody in FIG. 6B.

Kd [26]: 2.77 nM
Bmax [27]: 3.04
B3: 13F7 (antibody, V domains shown)
VH: QVQLQEWGAGLLKPSETLSLTCAINAESFNGYSWTWIRQTPGKGLEWIGEISHFGSANYNPSLKSRATISADKSKNQFSLKLTSVTAVDTAVYYCARALRGTYSRFYYGMDVWGQGTTVTVSS
VL: DIVMTQTPLSLPVAPGEPASISCRSSQSLLHSNGYNYLDWYVQKPGQPPQLLIYLGSNRASGVPDRFSGSGSGTDFTLKISRVEAEDVGVYYCMQARQTPLTFGGGTKVEIKR
